Data: patent publication US20160058886A1

How the values were obtained:
[1] = target: nucleolin at the surface of MDA-MB-231 and MDA-MB-435S breast cancer cells (UniProt P19338); test: flow cytometry, rhodamine geometric mean fluorescence, MDA-MB-435S cells
[2] = target: nucleolin at the surface of MDA-MB-231 and MDA-MB-435S breast cancer cells (UniProt P19338); test: flow cytometry, rhodamine geometric mean fluorescence, MDA-MB-231 cells

UniProt P19338, sequence (P19338 2-710 limits assumed): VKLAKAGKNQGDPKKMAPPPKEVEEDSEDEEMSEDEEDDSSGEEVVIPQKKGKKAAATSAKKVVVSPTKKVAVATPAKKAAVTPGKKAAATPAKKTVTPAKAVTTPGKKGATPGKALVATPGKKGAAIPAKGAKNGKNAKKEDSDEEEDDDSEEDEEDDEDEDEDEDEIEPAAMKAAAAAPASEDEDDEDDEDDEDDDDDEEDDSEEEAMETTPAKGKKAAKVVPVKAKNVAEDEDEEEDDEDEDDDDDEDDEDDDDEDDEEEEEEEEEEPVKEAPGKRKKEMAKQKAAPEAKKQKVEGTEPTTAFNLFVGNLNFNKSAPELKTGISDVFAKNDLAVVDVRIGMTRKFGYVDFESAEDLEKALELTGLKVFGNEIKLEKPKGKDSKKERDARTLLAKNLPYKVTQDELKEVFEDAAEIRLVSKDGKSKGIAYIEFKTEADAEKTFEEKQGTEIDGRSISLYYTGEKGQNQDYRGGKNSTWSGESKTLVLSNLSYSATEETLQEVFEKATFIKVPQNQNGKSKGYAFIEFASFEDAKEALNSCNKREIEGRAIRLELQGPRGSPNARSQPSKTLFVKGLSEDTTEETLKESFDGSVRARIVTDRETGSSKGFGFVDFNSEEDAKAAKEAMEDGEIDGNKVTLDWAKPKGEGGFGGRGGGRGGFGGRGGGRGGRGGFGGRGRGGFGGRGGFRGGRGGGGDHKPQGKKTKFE

F3 peptide-targeted liposomes (F3 peptide, SEQ ID NO:1, coupled through DSPE-PEG2k to pH-sensitive liposomes)
higher cellular association of the CD44+/ALDHhi population against the CD44-/ALDH-/low population (MDA-MB-435S) [1]: 61%
higher cellular association of the CD44+/ALDHhi population against the CD44-/ALDH-/low population (MDA-MB-231) [2]: 64%
